# Data from the supplement of paper PMC10724198.
# ± gives the standard deviation of the averaged measurements.
# Tested on: Saccharomyces cerevisiae
# Assay: protein stability index of tFT-peptide fusion (C-terminal peptide) (PSI (0-1 scale)); higher = more stable (slower turnover)
# Settings: genetic background: wild type; temperature: 30 C
# Description: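 Multiplexed protein stability (MPS) profiling in S. cerevisiae. Random 12-aa peptides (tFT-X12 library) are fused to the C-terminus of a sfGFP-mCherry tandem fluorescent timer, after mCherry and a GGGS linker. Cells are FACS-sorted into 8 mCherry/sfGFP bins and deep-sequenced. The protein stability index (PSI) is the read-weighted bin average, scaled from 0 (unstable) to 1 (stable). Only peptides with >10 reads are reported; cells were grown at 30 °C in SC-His with glucose.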
# 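Note: PSI is a weighted mean of sequencing reads over stability bins, variants kept only with over 10 reads, mCherry proximal and sfGFP distal, peptide attached via GGGS linker.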
row,Sequence,protein stability index
1,ARCSDPSAATHT,0.706 ± 0.038
2,AREVGGRAGRRE,0.661 ± 0.012
3,ARFFPLPIPPRS,0.758 ± 0.078
4,ARGFSAGAIGVG,0.646 ± 0.1
5,ARGGGRSEGGEG,0.7151 ± 0.0024
6,ARIGVQRFSGVV,0.708 ± 0.019
7,ARLHMSLFRPPA,0.646 ± 0.011
8,ARLSLEGASRGE,0.653 ± 0.023
9,ARMRQNDKHDGS,0.662 ± 0.011
10,ARPDTSPPGTSL,0.664 ± 0.044
11,ARPFCPLYTPRG,0.686 ± 0.043
12,ARQPMHYRITGC,0.644 ± 0.063
13,ARRYVPPRWGSL,0.679 ± 0.065
14,ARSDRLPNILPY,0.679 ± 0.071
15,ARSDSPRATQAN,0.697 ± 0.06
16,ARSFALLGCRRS,0.677 ± 0.042
17,ARTGRELVLPKG,0.663 ± 0.0089
18,ARWQALTHLIVL,0.6151 ± 0.0051
19,ASCAPGDVTQVG,0.718 ± 0.038
20,ASCGTAGPCVPF,0.708 ± 0.019
21,ASCHFSILPTRL,0.67 ± 0.032
22,ASCLNYSSNRRP,0.617 ± 0.064
23,ASCRRGGAGCLR,0.735 ± 0.043
24,ASFLRPQMSLPF,0.618 ± 0.0095
25,ASFRPDGYTYSV,0.622 ± 0.071
26,ASGAPGRGRGVV,0.697 ± 0.083

row,Sequence,protein stability index
1,ASGLVVDYTLIA,0.671 ± 0.025
2,ASGRARVIGVCR,0.704 ± 0.029
3,ASHDIFWAGSRE,0.766 ± 0.092
4,ASLFFSLCSLSE,0.694 ± 0.011
5,ASLPPPFTMLLL,0.686 ± 0.051
6,ASLSKLTLKVTV,0.586 ± 0.057
7,ASLTPFFLCSIF,0.649 ± 0.0073
8,ASPALPAPRSAP,0.704 ± 0.057
9,ASPRLTGCPNPR,0.6863 ± 0.002
10,ASRIGHIGQPVI,0.6889 ± 0.00017
11,ASRRMGGHNALS,0.705 ± 0.013
12,ASSPSPPTPPPP,0.647 ± 0.056
13,ASSTSSPPPLPP,0.666 ± 0.032
14,ASTLFDCHVLGA,0.697 ± 0.039
15,ASVVEVSSLSLL,0.629 ± 0.052
16,ATIRNSMPYHFN,0.646 ± 0.044
17,ATLGTVTLAFSV,0.634 ± 0.044
18,ATLSSVSSGSSF,0.647 ± 0.12
19,ATNCERLHNPHL,0.727 ± 0.0034
20,ATPTQADRMPVT,0.721 ± 0.1
21,ATSFHALPVFTS,0.644 ± 0.053
22,ATSPTSGGIHTA,0.662 ± 0.0092
23,ATYPVPMPPTPQ,0.734 ± 0.037
24,AVAFELCDLTRG,0.702 ± 0.038
25,AVCSLTLGFGWW,0.755 ± 0.034
26,AVDSGSLERIRM,0.69037 ± 0.00042

row,Sequence,protein stability index
1,AVFGLEAVMRRG,0.753 ± 0.15
2,AVFQEIPFGIPP,0.696 ± 0.073
3,AVGGVFVSSGGL,0.691 ± 0.013
4,AVGTAPVFLWFG,0.679 ± 0.0083
5,AVISDVSLKPNF,0.673 ± 0.082
6,AVISSSFFGSSY,0.721 ± 0.076
7,AVLPFFPCFSAF,0.69 ± 0.038
8,AVLSVGHWGSGL,0.69 ± 0.028
9,AVSESSRRTQFF,0.7039 ± 0.0025
10,AVSLTLCISSIS,0.5869 ± 0.0052
11,AVVRVSLPSTVV,0.667 ± 0.059
12,AVYIEFLYPRRL,0.644 ± 0.039
13,AWEWMTVQVVRG,0.586 ± 0.012
14,AWGGGEWGGCGR,0.772 ± 0.027
15,AWGGSWWSLGGM,0.6715 ± 0.0056
16,AWGSVVTFLGLR,0.737 ± 0.054
17,AWGVCRPGGRGG,0.681 ± 0.035
18,AWMSRTRSKNLR,0.717 ± 0.048
19,AWPGPKMCWVVK,0.6294 ± 0.0023
20,AWRVVRIFFCGG,0.72 ± 0.15
21,AWRWGVGVGSGS,0.735 ± 0.17
22,AYRISCAGHIMA,0.684 ± 0.053
23,AYRRPKFLEGTF,0.694 ± 0.1
24,AYTSVSVDHLIH,0.673 ± 0.0069
25,CAGVGGGLVSLG,0.688 ± 0.082
26,CASSFSFFRFPP,0.586 ± 0.019

row,Sequence,protein stability index
1,CAVLGGGGVWGA,0.596 ± 0.035
2,CAVSFPLCLLPP,0.6439 ± 0.0036
3,CCARRWLNFEYW,0.72 ± 0.032
4,CCGQRYACVFQT,0.651 ± 0.029
5,CCKMITYKEGRE,0.692 ± 0.06
6,CCLGVFFGVGGL,0.772 ± 0.12
7,CCLNHIFECLTL,0.7012 ± 0.0066
8,CCLSCGRPTLGS,0.731 ± 0.067
9,CCRICCCLLGTH,0.658 ± 0.032
10,CDGGCSWGGLMG,0.795 ± 0.071
11,CDRNLSYGAGSV,0.705 ± 0.049
12,CEPPRPGLLPLF,0.724 ± 0.016
13,CESRSIVSFVLL,0.73 ± 0.11
14,CFFLVLPPFPLF,0.518 ± 0.028
15,CFGFVRSLGWWG,0.6486 ± 0.0027
16,CFMGCAKRVTLI,0.561 ± 0.039
17,CFRTVPPPALTR,0.7199 ± 0.002
18,CGAGGARGSVAR,0.693 ± 0.026
19,CGALKGKKPYGV,0.715 ± 0.057
20,CGALSVLGWEPF,0.71615 ± 0.0001
21,CGCFLSELATFC,0.652 ± 0.059
22,CGCVSWYYGALD,0.628 ± 0.0073
23,CGEALGVSWMTL,0.684 ± 0.0038
24,CGEWSWAGVGVR,0.702 ± 0.032
25,CGFCVCWSGVAL,0.72 ± 0.045
26,CGFFSGLLYFSL,0.586 ± 0.028

row,Sequence,protein stability index
1,CGGAQRREGGLG,0.649 ± 0.03
2,CGLASHLCSGRG,0.66 ± 0.081
3,CGLRGAGVLCWG,0.483 ± 0.051
4,CGLRRFTGLAWS,0.6372 ± 0.00093
5,CGLRVAGVLCWG,0.465 ± 0.05
6,CGPLPLVRSLLP,0.7031 ± 0.0023
7,CGRCVRGGRPWG,0.577 ± 0.012
8,CGRGVWAVVGVP,0.715 ± 0.028
9,CGRSGALGPWGG,0.673 ± 0.0053
10,CGSAIGEARDLG,0.621 ± 0.021
11,CGSTLLPESYIQ,0.645 ± 0.052
12,CGTVVISGIVWR,0.647 ± 0.04
13,CGVHESAIQPNL,0.605 ± 0.0081
14,CGWGVMDAVGSR,0.685 ± 0.019
15,CHILGSINKIKE,0.7 ± 0.039
16,CHRLGRTTGRIR,0.692 ± 0.026
17,CIGVRFVNAHEG,0.771 ± 0.1
18,CILPVLRGMSPA,0.616 ± 0.011
19,CIQRYSTAHPYH,0.679 ± 0.06
20,CIVSARCWRSPY,0.609 ± 0.0072
21,CKQIESRLLEGQ,0.64 ± 0.024
22,CLAPPTFAPSSL,0.752 ± 0.081
23,CLCLGGIWIVGG,0.63 ± 0.027
24,CLDRRCTSRGCI,0.717 ± 0.03
25,CLFSFGPLAVNI,0.6 ± 0.0079
26,CLGLVSLSGGAR,0.712 ± 0.073

row,Sequence,protein stability index
1,CLGRDVENRDAW,0.785 ± 0.078
2,CLGSGGRVSRGA,0.6715 ± 0.0022
3,CLHLDQAACVGS,0.695 ± 0.1
4,CLIGHFFSVIFY,0.5239 ± 0.0051
5,CLLLPPLATFPR,0.695 ± 0.017
6,CLLSRGLTVSYS,0.626 ± 0.012
7,CLPGVVRGLSTM,0.703 ± 0.036
8,CLPLPAPLLAHL,0.666 ± 0.16
9,CLPRFLGLGGRV,0.68 ± 0.072
10,CLRPGAPESSIP,0.673 ± 0.1
11,CLRRGGAGDGAS,0.678 ± 0.011
12,CLSPAPLPPFFY,0.6724 ± 0.0018
13,CLSYSVCPFWEA,0.807 ± 0.0087
14,CLTTVCHRRVRC,0.655 ± 0.075
15,CLVGSLTDIAWL,0.756 ± 0.028
16,CLVSGGRVSRGA,0.6578 ± 0.0019
17,CLVWGGCYWDVG,0.6019 ± 0.0015
18,CLWSDQLFFYFG,0.734 ± 0.025
19,CLYLLFGLLHVG,0.545 ± 0.02
20,CMFATFLFVPPL,0.591 ± 0.014
21,CPDFSSSLTFFL,0.706 ± 0.014
22,CPFPSPTPPPPC,0.726 ± 0.095
23,CPGTSLVLPPLL,0.688 ± 0.019
24,CPIASSRHSVGL,0.823 ± 0.12
25,CPIKSLLPGSFA,0.693 ± 0.03
